{
  "source": "paper PMC5979539",
  "about": "(International Journal of Molecular Sciences, 2018)",
  "origin": "cited, not measured here",
  "molecules": {"B1": {"name": "PDC-109: main protein of bovine seminal plasma, purified from bull seminal plasma; glycosylated and non-glycosylated forms (protein)", "chain": "DQDEGVSTEPTQDGPAELPEDEECVFPFVYRNRKHFDCTVHGSLFPWCSLDADYVGRWKYCAQRDYAKCVFPFIYGGKKYETCTKIGSMWMSWCSLSPNYDKDRAWKYC", "modifications": "mixture of the glycosylated (O-linked trisaccharide, Neu5Ac-Hex-HexNAc) and non-glycosylated forms"}},
  "tested_on": "PC membranes",
  "settings": "cited from earlier work",
  "from_the_text": "Despite the above-discussed limitations, we were able to determine the SPR binding parameters of PDC-109. Affinity constants (Table 4) indicated weak to moderate binding for carbohydrates, at least if compared to the considerably higher affinity (KA~10^7 M^−1) found for PC membranes.",
  "data": [
    {"molecule": "B1", "values": [
      {"measurement": "KA for PC membranes", "result": "~ 10^7 M^−1"}
    ]}
  ]
}
